What was measured:
Assay in all cases: cell-based or functional assay
[1] = target: spike protein of SARS-CoV-2 strain Victoria (SARS-CoV-2/human/AUS/VIC01/2020) (SARS-CoV-2, UniProt P0DTC2 14-1273)
[2] = target: spike protein of SARS-CoV-2 strain B.1.351 (SARS-CoV-2, UniProt P0DTC2 14-1273)
[3] = target: spike protein of SARS-CoV-2 strain P.1 (SARS-CoV-2, UniProt P0DTC2 14-1273)
[4] = target: spike protein of SARS-CoV-2 strain B.1.351 (SARS-CoV-2, UniProt P0DTC2 14-1273); remark: listed apart in the source
[5] = target: spike protein of SARS-CoV-2 strain B.1.1.7 (SARS-CoV-2, UniProt P0DTC2 14-1273)

B1: antibody 40 (antibody, V domains shown)
VH: QVQLVESGGGLVQPGGSLRLSCAVSGFTVSRNYMSWVRQAPGKGLEWVSLIYSGGSTFYADSVKGRFTISRDNSKNTLYLQMNSLRAEDTAVYYCARDLFHRSGYHDYWGQGTLVTVSS
VL: not shown
IC50 (FRNT, live virus neutralisation) [1]: 0.026 µg/mL
IC50 (FRNT, live virus neutralisation) [2]: 0.738 µg/mL

B2: antibody 58 (antibody, V domains shown)
VH: QVQLVESGGGLVQPGRSLRLSCAASGFTFDDYAMHWVRQPPGKGLEWVSGVSWNSGTIGYADSVKGRFIISRDNAKNSLYLQMNSLKAEDTALYYCAREVGGTFGVLISREGGLDYWGQGTLVTVSS
VL: SYELTQPPSVSVAPGQTARITCGGNTIGSKSVHWYQQRPGQAPVLVVYDDSDRPSGIPERFSGSNSGNTATLTISRVEAGDEADYYCQVWDSSSDRVVFGGGTKLTVL
IC50 (FRNT, live virus neutralisation) [1]: 0.041 µg/mL
IC50 (FRNT, live virus neutralisation) [2]: 0.136 µg/mL

B3: antibody 88 (antibody, V domains shown)
VH: QLQLQESGPGLVKPSQTLSLTCTVSGGSISSGSYNWTWIRQPAGKGLEWIGRIYNSGSTNYNPSLKSRVTISVDTSKNQLSLKVRSVTAADTAVYYCARHCSGGTCYPKYYYGMDVWGQGTTVTVSS
VL: QSALTQPPSVSEAPRQRVTISCSGSSSNIGNNAVNWYQQFPGKAPKLLIYYDDLLPSGVSDRFSGSKSGTSASLAISGVQSEDEADYYCAAWDDSLNVVVFGGGTKLTVL
IC50 (FRNT, live virus neutralisation) [1]: 0.033 µg/mL
IC50 (FRNT, live virus neutralisation) [2]: > 10 µg/mL

B4: antibody 132 (antibody, V domains shown)
VH: QVQLQQWGAGLLKPSETLSLTCAVYGGSFSGYYWSWIRQPPGKGLEWIGEINHSGSTNYNPSLKSRVTISVDTSKNQFSLKLSSVTAADTAVYYCARTDYYDSIDWGQGTLVTVSS
VL: QSVLTQEPSLTVSPGGTVTLTCGSSTGAVTSGHYPYWFQQKPGQVPRTLIYDTRNKHSWTPARFSGSLLGGKAALTLSGAQPEDEAEYYCLLSSSGARVFGGGTKLTVL
IC50 (FRNT, live virus neutralisation) [1]: 0.048 µg/mL
IC50 (FRNT, live virus neutralisation) [2]: > 10 µg/mL

B5: antibody 150 (antibody, V domains shown)
VH: QVQLVESGGGLIQPGGSLRLSCAASGVTVSSNYMSWVRQAPGKGLEWVSIIYSGGTTYYADSVKGRFTISRDSSMNTLYLQMNSLRAEDTAVYYCARDLMVYGIDVWGQGTTVTVSS
VL: EIVMTQSPSSLSASVGDRVTITCRASQGISSYLAWYQQKPGKAPKLLIYAASTLQSGVPSRFSGSGSGTDFTLTISSLQPEDFATYYCQQLDSYPPGYTFGQGTKVDIK
IC50 (FRNT, live virus neutralisation) [1]: 0.012 µg/mL
B.1.351/Victoria ratio (IC50) [2]: 30
IC50 (FRNT, live virus neutralisation) [2]: 0.35 µg/mL

B6: antibody 158 (antibody, V domains shown)
VH: EVQLLESGGDLIQPGGSLRLSCAASGVTVSSNYMSWVRQAPGKGLEWVSIIYPGGSTFYADSVKGRFTISRDNSKNTLYLQMHSLRAEDTAVYYCARDLGSGDMDVWGKGTTVTVSS
VL: DIVMTQSPSFLSASVGDRVTITCRASQGISSYLAWYQQKPGKAPKLLIQAASTLQSGVPSRFSGSGSGTEFTLTISSLQPEDFATYYCQQLNSYRYTFGQGTKVEIK
IC50 (FRNT, live virus neutralisation) [1]: 0.031 µg/mL
IC50 (FRNT, live virus neutralisation) [2]: > 10 µg/mL

B7: antibody 384 (antibody, V domains shown)
VH: EVQLVESGGGLVKPGESLRLSCAASGFTFSDYYMTWIRQAPGKGLEWVSYIRSSGHTIYYADSVKGRFTISRDNAKNSLYLQMNSLRVEDTAVYYCARGGVLRFLEWPLNAFDIWGQGTMVTVSS
VL: DIQLTQSPSSLSASVGDRVTITCRASQGISNYLAWYQQKPGKVPKLLIYAASTLQSGVPSRFSGSGSGTDFTLTISSLQPEDVATYYCQKYNNALGTFGQGTKVEIK
IC50 (FRNT, live virus neutralisation) [2]: > 10 µg/mL

B8: antibody 384 (antibody, V domains shown)
VH: EVQLVESGGGLVKPGESLRLSCAASGFTFSDYYMTWIRQAPGKGLEWVSYIRSSGHTIYYADSVKGRFTISRDNAKNSLYLQMNSLRVEDTAVYYCARGGVLRFLEWPLNAFDIWGQGTMVTVSS
VL: DIQLTQSPSSLSASVGDRVTITCRASQGISNYLAWYQQKPGKVPKLLIYAASTLQSGVPSRFSGSGSGTDFTLTISSLQPEDVATYYCQKYNNALGTFGQGTKVEIK
IC50 (FRNT neutralisation) [3]: > 10 µg/mL
IC50 (FRNT neutralisation) [4]: > 10 µg/mL
IC50 (FRNT neutralisation) [5]: 0.005 µg/mL
